The results in this text go back to patent publication US20240425603A1 (Janssen / Centocor, published 2024).

To fix the notation:
T1: Recombinant mouse VEGFR1-Fc (R&D Systems) (mouse, UniProt P35969 27-759, limits assumed)
T1 construct: bought; not shown: Fc part of the bought fusion, not described
T1 sequence (looked up): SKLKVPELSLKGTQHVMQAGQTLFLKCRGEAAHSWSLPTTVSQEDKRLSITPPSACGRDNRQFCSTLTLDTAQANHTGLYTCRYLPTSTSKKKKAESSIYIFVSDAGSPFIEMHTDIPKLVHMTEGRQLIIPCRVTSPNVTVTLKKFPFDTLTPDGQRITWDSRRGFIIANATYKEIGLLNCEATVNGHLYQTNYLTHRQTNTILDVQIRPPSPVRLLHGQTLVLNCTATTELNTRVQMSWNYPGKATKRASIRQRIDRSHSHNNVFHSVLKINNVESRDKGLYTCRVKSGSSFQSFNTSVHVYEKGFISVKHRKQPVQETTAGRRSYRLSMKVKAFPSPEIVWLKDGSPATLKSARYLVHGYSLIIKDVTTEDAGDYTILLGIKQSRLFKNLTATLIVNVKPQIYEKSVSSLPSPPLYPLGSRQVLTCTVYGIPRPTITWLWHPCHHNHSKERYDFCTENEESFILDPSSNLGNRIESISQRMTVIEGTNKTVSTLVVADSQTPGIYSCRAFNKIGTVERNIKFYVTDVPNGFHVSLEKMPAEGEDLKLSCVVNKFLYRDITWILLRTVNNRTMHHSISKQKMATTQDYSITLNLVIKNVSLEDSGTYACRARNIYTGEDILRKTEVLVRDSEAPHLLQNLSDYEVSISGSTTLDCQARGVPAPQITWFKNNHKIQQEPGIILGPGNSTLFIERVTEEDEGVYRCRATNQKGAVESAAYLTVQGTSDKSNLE

T2: mouse VEGFR1 (soluble antigen of the KinExA and SPR affinity assays) (mouse, UniProt P35969 23-759, limits assumed)
T2 sequence (looked up): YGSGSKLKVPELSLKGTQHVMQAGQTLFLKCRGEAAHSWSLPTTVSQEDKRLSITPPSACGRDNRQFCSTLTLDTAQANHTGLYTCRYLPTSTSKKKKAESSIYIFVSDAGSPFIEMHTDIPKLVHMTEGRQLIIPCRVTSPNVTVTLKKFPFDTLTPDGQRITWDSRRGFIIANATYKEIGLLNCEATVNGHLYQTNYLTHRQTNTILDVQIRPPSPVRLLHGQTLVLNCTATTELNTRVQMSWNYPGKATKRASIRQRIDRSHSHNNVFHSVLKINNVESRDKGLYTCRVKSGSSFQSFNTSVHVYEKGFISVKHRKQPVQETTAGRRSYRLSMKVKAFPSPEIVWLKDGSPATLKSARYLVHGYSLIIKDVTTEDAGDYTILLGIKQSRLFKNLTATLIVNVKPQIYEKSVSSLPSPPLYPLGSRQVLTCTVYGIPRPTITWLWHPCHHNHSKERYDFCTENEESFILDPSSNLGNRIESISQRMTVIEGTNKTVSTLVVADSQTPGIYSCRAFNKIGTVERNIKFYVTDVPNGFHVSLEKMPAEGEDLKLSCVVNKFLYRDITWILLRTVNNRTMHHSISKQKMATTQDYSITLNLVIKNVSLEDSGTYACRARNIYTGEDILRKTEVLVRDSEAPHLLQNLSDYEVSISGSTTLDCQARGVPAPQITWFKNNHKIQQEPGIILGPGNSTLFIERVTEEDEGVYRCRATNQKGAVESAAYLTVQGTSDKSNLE

B1: VGFB82 (antibody, human IgG1, lambda, L234A L235A, V domains shown)
VH: EVQLLESGGGLVQPGGSLRLSCEASGFDFSTYAMNWVRQAPGKGLEWVATINSEGTITSHAPAVKGRFTISRDNSKNTAYVQMNSLRAEDSAVYYCSSTTGTTHGMDVWGRGTTVTVSS
VL: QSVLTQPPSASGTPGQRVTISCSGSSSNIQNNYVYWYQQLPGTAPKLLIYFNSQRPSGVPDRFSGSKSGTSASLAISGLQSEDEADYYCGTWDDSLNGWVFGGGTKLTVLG
notes: human IgG1 (L234A/L235A/D265S)
B2: VGFB54 (antibody, human IgG1, lambda, L234A L235A, V domains shown)
VH: EVQLLESGGGSVQPGGSLRLSCTASGFNFEDYGMNWVRQAPGKGLDWVSSINRNGDISTYHVDSVKGRFTISRDNSKNTLYLQMNSLRAEDTAIYYCTKNHDYHGMDVWGQGTTVTVSS
VL: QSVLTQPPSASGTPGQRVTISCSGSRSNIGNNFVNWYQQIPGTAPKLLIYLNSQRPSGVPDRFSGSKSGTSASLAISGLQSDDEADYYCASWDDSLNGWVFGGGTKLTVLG
notes: human IgG1 (L234A/L235A/D265S), lambda, 2H:2L; from OmniChicken
B3: VGFB78 (antibody, human IgG1, lambda, L234A L235A, V domains shown)
VH: EVQLLESGGGLVQPGGSLRLSCAASSFTFYNYDMTWVRQAPGKGLEWVAGIGTSGTDMYYADSVKGRFTISRDNSKNTLYLQMNSLRAEDTAIYYCAKDYYYYGMDVWGLGTTVTVSS
VL: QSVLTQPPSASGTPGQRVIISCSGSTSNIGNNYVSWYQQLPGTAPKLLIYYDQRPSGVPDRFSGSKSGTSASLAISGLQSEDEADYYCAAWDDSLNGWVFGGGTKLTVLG
notes: as for B1
B4: VGFB71 (antibody, human IgG1, lambda, L234A L235A, V domains shown)
VH: EVQLLESGGGLVQPGGSLRLSCEASGFIFRDYNMNWVRQAPGKGLEWVSIITNDGSSTAYSDSVKGRFTISRDNSKNSLYLQMNSLRAEDTAIYYCVKVYYGMDDWGQGTTVTVSS
VL: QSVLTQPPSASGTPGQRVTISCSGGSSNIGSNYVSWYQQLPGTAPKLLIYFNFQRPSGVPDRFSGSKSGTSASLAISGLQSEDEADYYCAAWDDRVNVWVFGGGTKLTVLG
notes: as for B1

Several values for one entry are separate records, joined by “and”; a condition that tells them apart may be missing. Equal entries are not always repeated.

For the first assay, the target named is T1, Recombinant mouse VEGFR1-Fc (R&D …). Kind of assay: MSD ECL competition on plate-bound mouse VEGFR1-Fc; competitor biotin PlGF (2 nM). In outline: (§1)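 IC50 and maximal percent inhibition come from electro-chemiluminescence readings of bound ligand, detected with Sulfo-tagged streptavidin on an MSD SECTOR S 600 imager. Receptor (human or mouse VEGFR1-Fc, or His-tagged cyno VEGFR1, 0.5 ug/ml) was captured for 1 hour at room temperature on Protein A/G- or anti-His mAb-coated MSD 384 plates blocked with Blocker A. Half-log antibody dilutions were pre-incubated for 30 minutes before biotinylated VEGFA (0.2 nM) or PlGF (2 nM) was added.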
For B1, the IC50 (usually the point on the concentration scale where inhibition reaches its midpoint) is 0.221 nM and the “Max % Inh.” value was found to be 100%.

As to B2, the IC50 is 0.24 nM and the “Max % Inh.” value came to 98.4%.

Regarding B3, the IC50 was found to be 0.243 nM and the “Max % Inh.” value worked out at 100%.

For the next assay, the target named is His tagged cyno VEGFR1 (cynomolgus monkey, UniProt A0A2K5VAF2 27-758). Put plainly: MSD ECL competition on plate-bound His-tagged cyno VEGFR1; competitor biotin human PlGF (2 nM). In outline: as §1
Consider B1, for which the 50% inhibitory concentration (IC50) came out at 0.091 nM and the “Max % Inh.” value is 100%.

With B2, the half-maximal inhibitory concentration (IC50) was 0.078 nM and the “Max % Inh.” value turned out to be 100%.

Take B3: the IC50 worked out at 0.177 nM and the “Max % Inh.” value worked out at 100%.

The next assay concerns the target T2, mouse VEGFR1 (soluble antigen of the …). Put plainly: SPR.
Take B1: the affinity, expressed as Kd, was 0.01 nM.

As to B2, the Kd – broadly, the free concentration of one partner at which half of the binding sites on the other are occupied at equilibrium, for simple one-to-one binding – amounted to 5.3 nM.

For B3, the Kd was 0.004 nM and < 0.006 nM.

The target in the next assay is T3, human VEGFR3, over-expressed on K562 cells (human, UniProt P35916 25-1363).
T3 construct: whole, on cells; also called huVEGFR3; hVEGFR3
T3 sequence (P35916 25-1363): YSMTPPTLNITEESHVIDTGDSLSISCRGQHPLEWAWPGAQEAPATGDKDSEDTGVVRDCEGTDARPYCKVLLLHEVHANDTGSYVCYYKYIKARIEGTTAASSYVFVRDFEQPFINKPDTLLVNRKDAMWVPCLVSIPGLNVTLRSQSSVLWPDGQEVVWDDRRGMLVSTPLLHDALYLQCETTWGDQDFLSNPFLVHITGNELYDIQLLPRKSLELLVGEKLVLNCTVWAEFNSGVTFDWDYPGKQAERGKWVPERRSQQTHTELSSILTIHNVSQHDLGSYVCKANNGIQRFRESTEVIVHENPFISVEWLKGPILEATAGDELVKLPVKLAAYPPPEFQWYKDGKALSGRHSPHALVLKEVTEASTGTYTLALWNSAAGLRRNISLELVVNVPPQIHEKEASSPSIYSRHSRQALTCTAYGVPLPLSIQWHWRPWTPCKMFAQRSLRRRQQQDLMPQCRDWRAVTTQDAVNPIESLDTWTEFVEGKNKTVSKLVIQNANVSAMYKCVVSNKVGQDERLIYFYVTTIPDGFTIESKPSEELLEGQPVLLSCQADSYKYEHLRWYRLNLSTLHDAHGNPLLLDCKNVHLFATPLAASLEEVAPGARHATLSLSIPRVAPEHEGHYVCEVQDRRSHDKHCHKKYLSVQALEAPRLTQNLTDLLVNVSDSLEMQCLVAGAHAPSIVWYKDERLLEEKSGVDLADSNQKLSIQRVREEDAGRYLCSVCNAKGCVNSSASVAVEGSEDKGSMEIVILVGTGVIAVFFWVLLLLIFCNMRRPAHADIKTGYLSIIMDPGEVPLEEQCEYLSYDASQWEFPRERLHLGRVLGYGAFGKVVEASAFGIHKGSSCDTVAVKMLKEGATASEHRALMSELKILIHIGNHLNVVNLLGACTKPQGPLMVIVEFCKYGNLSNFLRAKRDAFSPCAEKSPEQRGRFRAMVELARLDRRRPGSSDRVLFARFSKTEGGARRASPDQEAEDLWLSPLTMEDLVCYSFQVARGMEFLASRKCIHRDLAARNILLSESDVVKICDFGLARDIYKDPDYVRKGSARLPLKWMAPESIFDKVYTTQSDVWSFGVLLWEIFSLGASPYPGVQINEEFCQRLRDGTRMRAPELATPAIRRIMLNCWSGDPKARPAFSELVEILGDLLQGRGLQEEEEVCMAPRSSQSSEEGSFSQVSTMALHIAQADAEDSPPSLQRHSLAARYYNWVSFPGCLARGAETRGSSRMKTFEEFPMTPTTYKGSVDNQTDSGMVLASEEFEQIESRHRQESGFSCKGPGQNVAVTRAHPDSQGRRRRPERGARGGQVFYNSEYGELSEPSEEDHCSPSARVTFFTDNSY
Kind of assay: FACS cell binding (MFI) on K562 cells over-expressing human VEGFR3; expanded clone supernatant per paragraph 492, concentration not given. In outline:
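Chicken-derived antibody clones, expressed as scFv-Fc (human IgG1) by transient transfection, were tested as culture supernatants. Flow cytometry measured their binding to engineered cells over-expressing each receptor: mouse VEGFR1 and human VEGFR2 on HEK cells, human VEGFR3 on K562 cells. Values are given as mean fluorescence intensity.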
For the molecule B1, the binding result is “no binding”.

Turning to B2, the binding result was “no binding”.

B4: the binding result is “no binding”.

With B3, the binding result is “no binding”.

The target of the next assay is T4, VGFW1 (human, UniProt P17948 27-338, limits assumed).
T4 construct: construct of the HDX-MS work; also called VEGFR1 (VGFW1)
T4 sequence (P17948 27-338 limits assumed): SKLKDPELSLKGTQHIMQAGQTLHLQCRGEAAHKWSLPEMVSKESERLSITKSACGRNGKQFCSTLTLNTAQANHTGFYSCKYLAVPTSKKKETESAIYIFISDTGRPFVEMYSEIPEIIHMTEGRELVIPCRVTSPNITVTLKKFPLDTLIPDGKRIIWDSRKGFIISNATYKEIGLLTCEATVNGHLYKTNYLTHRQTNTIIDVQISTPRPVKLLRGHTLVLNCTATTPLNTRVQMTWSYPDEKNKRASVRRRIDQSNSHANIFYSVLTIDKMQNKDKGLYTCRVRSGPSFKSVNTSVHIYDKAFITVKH
Kind of assay: HDX-MS. A digest of the protocol:
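Hydrogen-deuterium exchange mass spectrometry mapped antibody binding on a recombinant VEGFR1 antigen. The read-out is the change in free energy per segment upon antibody binding. Segments above 2 kcal/mol count as strong epitopes and segments at 1-2 kcal/mol as weak ones.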
In the case of B1, the “Free energy change upon binding (ΔΔG), VEGFR1 segment 141-147” value is -0.6 kcal/mol; the “Free energy change upon binding (ΔΔG), VEGFR1 segment 147-153” value was -0.1 kcal/mol; the “Free energy change upon binding (ΔΔG), VEGFR1 segment 172-177” value was -0.6 kcal/mol; the “Free energy change upon binding (ΔΔG), VEGFR1 segment 178-199” value is -1 kcal/mol. Also, the “Free energy change upon binding (ΔΔG), VEGFR1 segment 200-200” value was -0.5 kcal/mol; the “Free energy change upon binding (ΔΔG), VEGFR1 segment 201-204” value was -3.3 kcal/mol; the “Free energy change upon binding (ΔΔG), VEGFR1 segment 211-215” value is -0.1 kcal/mol; the “Free energy change upon binding (ΔΔG), VEGFR1 segment 218-228” value was -0.3 kcal/mol.

Take B2: the “Free energy change upon binding (ΔΔG), VEGFR1 segment 141-147” value was -0.2 kcal/mol; the “Free energy change upon binding (ΔΔG), VEGFR1 segment 147-153” value was -0.4 kcal/mol; the “Free energy change upon binding (ΔΔG), VEGFR1 segment 172-177” value is -2.6 kcal/mol; the “Free energy change upon binding (ΔΔG), VEGFR1 segment 178-199” value was -0.3 kcal/mol. For the same molecule, the “Free energy change upon binding (ΔΔG), VEGFR1 segment 200-200” value is -1.4 kcal/mol; the “Free energy change upon binding (ΔΔG), VEGFR1 segment 201-204” value was -3.6 kcal/mol; the “Free energy change upon binding (ΔΔG), VEGFR1 segment 211-215” value was -0.1 kcal/mol; the “Free energy change upon binding (ΔΔG), VEGFR1 segment 218-228” value was -0.7 kcal/mol.

Turning to B4, the “Free energy change upon binding (ΔΔG), VEGFR1 segment 141-147” value is -0.3 kcal/mol; the “Free energy change upon binding (ΔΔG), VEGFR1 segment 147-153” value is -1.2 kcal/mol; the “Free energy change upon binding (ΔΔG), VEGFR1 segment 172-177” value is -4.2 kcal/mol; the “Free energy change upon binding (ΔΔG), VEGFR1 segment 178-199” value was 0 kcal/mol. The “Free energy change upon binding (ΔΔG), VEGFR1 segment 200-200” value is -2.8 kcal/mol; the “Free energy change upon binding (ΔΔG), VEGFR1 segment 201-204” value was -2.8 kcal/mol; the “Free energy change upon binding (ΔΔG), VEGFR1 segment 211-215” value is -0.1 kcal/mol; the “Free energy change upon binding (ΔΔG), VEGFR1 segment 218-228” value was -0.3 kcal/mol.

As to B3, the “Free energy change upon binding (ΔΔG), VEGFR1 segment 141-147” value is -0.3 kcal/mol; the “Free energy change upon binding (ΔΔG), VEGFR1 segment 147-153” value was -0.6 kcal/mol; the “Free energy change upon binding (ΔΔG), VEGFR1 segment 172-177” value was -2.7 kcal/mol; the “Free energy change upon binding (ΔΔG), VEGFR1 segment 178-199” value was -1.1 kcal/mol. Further, the “Free energy change upon binding (ΔΔG), VEGFR1 segment 200-200” value is -2.9 kcal/mol; the “Free energy change upon binding (ΔΔG), VEGFR1 segment 201-204” value was -3.6 kcal/mol; the “Free energy change upon binding (ΔΔG), VEGFR1 segment 211-215” value worked out at 0.1 kcal/mol; the “Free energy change upon binding (ΔΔG), VEGFR1 segment 218-228” value is -0.2 kcal/mol.

In the next assay the target is T5, human VEGFR2, over-expressed on HEK293 cells (human, UniProt P35968 20-1356).
T5 construct: whole, on cells; also called huVEGFR2; hVEGFR2
T5 sequence (P35968 20-1356): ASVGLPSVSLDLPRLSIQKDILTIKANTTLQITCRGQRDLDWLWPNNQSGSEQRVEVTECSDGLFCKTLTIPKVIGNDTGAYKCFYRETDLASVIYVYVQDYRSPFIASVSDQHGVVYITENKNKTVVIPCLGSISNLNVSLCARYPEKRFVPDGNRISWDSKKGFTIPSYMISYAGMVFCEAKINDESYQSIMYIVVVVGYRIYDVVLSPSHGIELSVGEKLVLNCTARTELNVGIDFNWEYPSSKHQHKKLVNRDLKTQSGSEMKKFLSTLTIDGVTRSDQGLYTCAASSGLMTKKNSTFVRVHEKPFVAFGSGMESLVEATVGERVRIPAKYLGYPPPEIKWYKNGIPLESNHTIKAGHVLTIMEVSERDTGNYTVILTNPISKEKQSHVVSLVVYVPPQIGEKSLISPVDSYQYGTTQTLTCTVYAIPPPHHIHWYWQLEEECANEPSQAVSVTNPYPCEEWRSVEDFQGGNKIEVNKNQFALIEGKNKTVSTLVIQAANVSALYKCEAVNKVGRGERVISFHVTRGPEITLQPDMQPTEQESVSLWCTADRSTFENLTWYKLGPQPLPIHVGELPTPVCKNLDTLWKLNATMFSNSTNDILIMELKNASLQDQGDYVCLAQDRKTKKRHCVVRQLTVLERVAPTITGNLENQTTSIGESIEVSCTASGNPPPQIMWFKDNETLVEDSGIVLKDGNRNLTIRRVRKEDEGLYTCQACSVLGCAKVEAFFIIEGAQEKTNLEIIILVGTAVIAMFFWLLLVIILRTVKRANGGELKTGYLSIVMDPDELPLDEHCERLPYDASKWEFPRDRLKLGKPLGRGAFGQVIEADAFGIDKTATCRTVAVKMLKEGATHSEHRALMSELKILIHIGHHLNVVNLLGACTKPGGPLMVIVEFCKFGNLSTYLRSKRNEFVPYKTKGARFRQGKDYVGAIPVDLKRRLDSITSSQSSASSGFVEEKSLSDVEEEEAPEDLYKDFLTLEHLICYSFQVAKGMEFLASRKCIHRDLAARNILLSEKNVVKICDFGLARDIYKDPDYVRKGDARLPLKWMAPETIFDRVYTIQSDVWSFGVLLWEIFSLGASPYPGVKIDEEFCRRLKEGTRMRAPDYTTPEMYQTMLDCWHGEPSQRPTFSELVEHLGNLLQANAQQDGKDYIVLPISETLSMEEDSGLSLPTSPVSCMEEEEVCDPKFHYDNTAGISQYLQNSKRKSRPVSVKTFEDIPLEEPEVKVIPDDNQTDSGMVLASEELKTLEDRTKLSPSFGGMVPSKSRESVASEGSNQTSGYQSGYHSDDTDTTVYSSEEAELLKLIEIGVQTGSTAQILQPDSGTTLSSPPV
Kind of assay: flow cytometry, 10 nM antibody, HEK cells over-expressing human VEGFR2. For orientation: A flow cytometer gives signals particle by particle.
Regarding B1, the “Geomean over-expressing/Geomean parental (Fold Signal/Background)” value worked out at 1.34 fold.

Turning to B2, the “Geomean over-expressing/Geomean parental (Fold Signal/Background)” value worked out at 1.52 fold.

On to B4, for which the “Geomean over-expressing/Geomean parental (Fold Signal/Background)” value was 1.27 fold.

Take B3: the “Geomean over-expressing/Geomean parental (Fold Signal/Background)” value came out at 1.75 fold.

The next assay deals with T6, Recombinant human VEGFR1-Fc (R&D Systems) (human, UniProt P17948 27-687, limits assumed).
T6 construct: bought; not shown: Fc part of the bought fusion, not described
T6 sequence (P17948 27-687 limits assumed): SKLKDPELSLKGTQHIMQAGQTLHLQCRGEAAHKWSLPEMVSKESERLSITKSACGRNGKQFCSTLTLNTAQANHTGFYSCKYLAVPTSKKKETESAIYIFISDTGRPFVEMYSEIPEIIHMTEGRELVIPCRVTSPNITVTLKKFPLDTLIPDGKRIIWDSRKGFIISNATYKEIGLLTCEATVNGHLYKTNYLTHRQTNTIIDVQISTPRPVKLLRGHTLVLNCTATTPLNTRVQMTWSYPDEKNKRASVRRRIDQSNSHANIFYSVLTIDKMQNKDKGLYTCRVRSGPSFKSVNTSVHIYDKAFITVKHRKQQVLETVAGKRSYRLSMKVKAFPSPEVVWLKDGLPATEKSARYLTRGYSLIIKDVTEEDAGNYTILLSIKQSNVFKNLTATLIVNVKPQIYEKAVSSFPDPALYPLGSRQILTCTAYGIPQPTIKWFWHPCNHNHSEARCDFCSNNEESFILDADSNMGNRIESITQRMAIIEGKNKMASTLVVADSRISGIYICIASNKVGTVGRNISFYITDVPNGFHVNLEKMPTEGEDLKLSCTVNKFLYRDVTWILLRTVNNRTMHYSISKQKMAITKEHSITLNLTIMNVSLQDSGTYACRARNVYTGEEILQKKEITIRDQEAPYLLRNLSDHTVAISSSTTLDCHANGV
Kind of assay: MSD ECL competition on plate-bound human VEGFR1-Fc; competitor biotin PlGF (2 nM). A digest of the protocol:
as §1
As to B1, the IC50 was found to be 0.183 nM and the “Max % Inh.” value is 100%.

As for B2, the IC50 worked out at 0.159 nM and the “Max % Inh.” value turned out to be 100%.

In the case of B3, the IC50 stood at 0.335 nM and the “Max % Inh.” value was 100%.
